B1: SD3014 (VHH)
VHH: EVQLVESGGGVVQPGGSLRLSCAASISIFDIYAMDWYRQAPGKQRELVAVSFRDGSTYYADSVKGRFTISRDNSKNTLYLQMNSLRAEDTAVYLCHVSLYRDPLGVAGGMGVYWGKGALVTVSS
B2: SD3031 (VHH)
VHH: B1 VHH with V11L, A24V, E46D, V50T, Y58N, S74A, R86K, A87P, M110V
B3: SD3032 (VHH)
VHH: B1 VHH with V11L, A24V, E46D, V50T, Y58N, S74A, R86K, A87P, M110A
B4: SD3019 (VHH)
VHH: B1 VHH with D35H, A49S
B5: SD3016 (VHH)
VHH: B1 VHH with A87P
B6: SD3017 (VHH)
VHH: B1 VHH with D35H, V50T
B7: SD3020 (VHH)
VHH: B1 VHH with D35H, A87P
B8: SD3033 (VHH)
VHH: B1 VHH with V11L, A24V, E46D, V50T, Y58N, S74A, R86K, A87P, M110F
B9: SD3018 (VHH)
VHH: B1 VHH with D35H
B10: SD3015 (VHH)
VHH: B1 VHH with A49S
B11: SD3023 (VHH)
VHH: EVQLLESGGGLVQAGGSLRLSCAASGRTYAMSWFRQAPGKEREFVSHINALGTRTYYADSVKGRFTISRDNSKNTLYLQMNSLRPEDTAVYYCTAQGQWRAAPVAVAAEYEFWGQGTQVTVSS
B12: SD3094 (VHH)
VHH: B11 VHH with A14P, S32G, S46A, P85A, Q118L
B13: SD3024 (VHH)
VHH: B11 VHH with A14P, P85A
B14: SD3025 (VHH)
VHH: B11 VHH with A14P, S46A, P85A
B15: SD3027 (VHH)
VHH: B11 VHH with H47A
B16: SD3098 (VHH)
VHH: B11 VHH with A14P, S32G, S46A, H47A, Q118L
B17: SD3028 (VHH)
VHH: B11 VHH with S46A
B18: SD3026 (VHH)
VHH: B11 VHH with A14P, H47A, P85A
B19: SD3095 (VHH)
VHH: B11 VHH with A14P, S32G, S46A, Q118L
B20: SD3096 (VHH)
VHH: B11 VHH with A14P, S32G, S46A, L76V, Q118L
B21: SD3068 (VHH)
VHH: EVQLVESGGGLVQPGGSLRLSCAASGRTLSIYSMGWFRQAPGKEREFVSTIGWNSGRTFYPDSLKGRFTISRDNSKNTLYLQMNSLRAEDTAVYYCAAAKGPLRLSSQADYWGQGTLVTVSS
B22: SD3067 (VHH)
VHH: B21 VHH with S49A
B23: SD3041 (VHH)
VHH: B21 VHH with G35S, T50A, F59Y, P61A, L64V, L117Q
B24: SD3044 (VHH)
VHH: B21 VHH with G35S, F59Y, P61A, L64V, S75A, K76R, L117Q
B25: SD3045 (VHH)
VHH: B21 VHH with P14A, G35S, T50A, F59Y, P61A, L64V, L117Q
B26: SD3042 (VHH)
VHH: B21 VHH with G35S, F59Y, P61A, L64V, L117Q
B27: SD3048 (VHH)
VHH: B21 VHH with P14A, G35S, F59Y, P61A, L64V, S75A, K76R, L117Q
B28: SD3047 (VHH)
VHH: B21 VHH with P14A, G35S, S49A, F59Y, P61A, L64V, L117Q
B29: SD3046 (VHH)
VHH: B21 VHH with P14A, G35S, F59Y, P61A, L64V, L117Q
B30: SD3043 (VHH)
VHH: B21 VHH with G35S, S49A, F59Y, P61A, L64V, L117Q
B31: SD3070 (VHH)
VHH: EVQLVESGGGLVQPGGSLRLSCAISGLSLDTYAVGWFRQAPGKEREGITCISSGHGITYYADSVKGRFTVSTDNSKNTLYLQMNSLRAEDTAVYYCATESRYYCSDNWPAPQRYIYWGQGTLVTVSS
B32: SD3103 (VHH)
VHH: B31 VHH with I48V, T49S, I57D, V70I
B33: SD3074 (VHH)
VHH: B31 VHH with I57M, V70I
B34: SD3071 (VHH)
VHH: B31 VHH with I57L
B35: SD3102 (VHH)
VHH: B31 VHH with I48V, T49S, I57Q, V70I
B36: SD3075 (VHH)
VHH: B31 VHH with I24A, I48V, T49S, V70I
B37: SD3100 (VHH)
VHH: B31 VHH with I48V, T49S, I57A, V70I
B38: SD3072 (VHH)
VHH: B31 VHH with I24A, I57M
B39: SD3076 (VHH)
VHH: B31 VHH with I24A, I48V, T49S, I57L, V70I
B40: SD3073 (VHH)
VHH: B31 VHH with I48V, T49S, I57M
B41: SD3104 (VHH)
VHH: B31 VHH with I48V, T49S, I57N, V70I
B42: SD3101 (VHH)
VHH: B31 VHH with I48V, T49S, I57S, V70I

Where a chain is given by its changes, count along the chain named.

For the first assay, the target named is hemagglutinin (HA) of influenza A/Vietnam/1194/04 (H5N1) (influenza A virus A/Vietnam/1194/04 (H5N1)). Briefly: cell-based or functional assay.
In the case of B1, the VNA IC50 was 11 nM.

B2: the VNA IC50 worked out at 51 nM.

Take B3: the VNA IC50 was over 500 nM.

As to B4, the VNA IC50 was found to be 8 nM.

Regarding B5, the VNA IC50 worked out at 8 nM. In turn, B6 came in with a VNA IC50 of 11 nM. Same read-out and setting: the same measure for B7: 15 nM. As for B8, the VNA IC50 was found to be 316 nM. In turn, B9 gave a VNA IC50 of 8 nM. Turning to B10, the VNA IC50 was found to be 6 nM.

For a further assay, the target named is hemagglutinin (HA) of influenza A/Brisbane/10/07 (H3N2) (influenza A virus A/Brisbane/10/07 (H3N2)). Kind of assay: cell-based or functional assay.
As for B2, the VNA IC50 is over 1000 nM. On the same count and under the same terms, the same measure for B11: 64 nM; for B12: 8 nM. As to B13, the VNA IC50 came out at 80 nM.

The molecule B14 displayed a VNA IC50 of 160 nM. Still for that read-out and setting: the same measure for B15: 16 nM.

In turn, B16 yielded a VNA IC50 of 4 nM. Still for that read-out and setting: the same measure for B17: 101 nM. Regarding B18, the VNA IC50 is 16 nM. Regarding B19, the VNA IC50 was 8 nM.

For the molecule B20, the VNA IC50 was 26 nM.

B21 came in with a VNA IC50 of 4 nM. As to B22, the VNA IC50 is 3 nM.

The next assay deals with hemagglutinin (HA) of influenza A/New Caledonia/20/99 (H1N1) (influenza A virus A/New Caledonia/20/99 (H1N1)). Kind of assay: cell-based or functional assay.
As for B1, the VNA IC50 was determined as 3 nM.

In the case of B2, the VNA IC50 was 37 nM. The same measure, in the same setting: the same measure for B3: over 500 nM; for B4: 4 nM. Still for that read-out and setting: the same measure for B5: 3 nM; for B6: 4 nM; for B7: 4 nM. On the same count and under the same terms, the same measure for B8: 51 nM. In turn, B9 returned a VNA IC50 of 6 nM.

For B10, the VNA IC50 is 3 nM.

The next assay addresses hemagglutinin (HA) of influenza A/New York/107/03 (PR8) (influenza A virus A/New York/107/03 (PR8)). Briefly: cell-based or functional assay.
Take B11: the VNA IC50 came out at 16 nM.

Turning to B12, the VNA IC50 amounted to 6 nM. Turning to B13, the VNA IC50 was 20 nM. B14: the VNA IC50 was determined as 13 nM. B15 displayed a VNA IC50 of 6 nM. Molecule B16 had a VNA IC50 of 16 nM. B17 showed a VNA IC50 of 26 nM.

B18 displayed a VNA IC50 of 8 nM.

B19 had a VNA IC50 of 6 nM. Still for that read-out and setting: the same measure for B20: 5 nM; for B23: over 1000 nM; for B24: over 1000 nM. B25: the VNA IC50 was over 1000 nM. The molecule B26 gave a VNA IC50 of over 1000 nM. The molecule B27 yielded a VNA IC50 of 858 nM. The same measure, in the same setting: the same measure for B28: over 1000 nM.

B29 came in with a VNA IC50 of over 1000 nM. As to B21, the VNA IC50 was found to be 26 nM.

Molecule B22 displayed a VNA IC50 of 16 nM.

Take B30: the VNA IC50 is over 1000 nM.

The target in a further assay is hemagglutinin (HA) of influenza B/Harbin/7/94 (Yamagata) (influenza B virus). Briefly: cell-based or functional assay.
With B31, the VNA IC50 is over 1000 nM.

For the molecule B32, the VNA IC50 was over 1000 nM. The same measure, in the same setting: the same measure for B33: over 1000 nM. Molecule B34 came in with a VNA IC50 of over 1000 nM.

Molecule B35 registered a VNA IC50 of over 1000 nM. In turn, B36 registered a VNA IC50 of over 1000 nM. B37 returned a VNA IC50 of over 1000 nM. Regarding B38, the VNA IC50 is over 1000 nM.

As to B39, the VNA IC50 was over 1000 nM.

On to B40, for which the VNA IC50 is over 1000 nM. The same measure, in the same setting: the same measure for B41: over 1000 nM; for B42: over 1000 nM.

For the next assay, the target named is hemagglutinin (HA) of influenza B/Lee/40 (Old) (influenza B virus) (UniProt P03460). Kind of assay: cell-based or functional assay.
Chain of hemagglutinin (HA) of influenza B/Lee/40 (Old) (influenza B virus) (P03460 16-584 limits assumed): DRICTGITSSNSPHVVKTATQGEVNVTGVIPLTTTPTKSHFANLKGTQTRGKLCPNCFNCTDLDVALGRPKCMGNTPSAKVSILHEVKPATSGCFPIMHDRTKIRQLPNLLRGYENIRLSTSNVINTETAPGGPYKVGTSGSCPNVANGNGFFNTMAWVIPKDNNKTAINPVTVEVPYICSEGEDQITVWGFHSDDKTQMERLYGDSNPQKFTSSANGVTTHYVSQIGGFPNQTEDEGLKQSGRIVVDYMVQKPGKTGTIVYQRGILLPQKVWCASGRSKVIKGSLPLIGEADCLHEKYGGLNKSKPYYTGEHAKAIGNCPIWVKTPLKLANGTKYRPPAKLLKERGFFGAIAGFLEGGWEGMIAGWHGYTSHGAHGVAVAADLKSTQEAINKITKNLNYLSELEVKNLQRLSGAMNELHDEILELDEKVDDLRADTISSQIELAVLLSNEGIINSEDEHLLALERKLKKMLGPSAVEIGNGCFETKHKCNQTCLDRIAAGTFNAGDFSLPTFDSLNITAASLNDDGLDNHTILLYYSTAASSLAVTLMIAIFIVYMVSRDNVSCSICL
Molecule B31 displayed a VNA IC50 of over 1000 nM. B32: the VNA IC50 was over 1000 nM. Regarding B33, the VNA IC50 was 42 nM. In turn, B34 showed a VNA IC50 of over 1000 nM. Consider B35, for which the VNA IC50 is over 1000 nM.

For B36, the VNA IC50 is over 1000 nM. B37 registered a VNA IC50 of over 1000 nM. For the molecule B38, the VNA IC50 was 318 nM. On the same count and under the same terms, the same measure for B39: over 1000 nM.

Take B40: the VNA IC50 is 59 nM. On to B41, for which the VNA IC50 is over 1000 nM. Same read-out and setting: the same measure for B42: over 1000 nM.
